Test results reported in US20250051463A1 (AstraZeneca / MedImmune, published 2025).

What was measured:
[1] = biological target: T1, human CD123 (IL3Rα) on cells (human, UniProt P26951 19-378); test: flow cytometry on EOL-1 cells, geometric mean
T1 construct: whole, on cells; also called human IL3Rα expressed on 293 cells; AD293hIL3Rα
Protocol: On the day of plating, cells were spun down at 1500 rpm for 3 minutes, counted, and resuspended to a final concentration of 1×10⁶ cells/ml. […] Plates were incubated at 4° C. for 30 minutes. Following incubation plates were washed 3 times by spinning down at 1500 rpm for 3 minutes, flicked and 100 μl of FACS buffer were added. […] Flow data was analyzed in FlowJo software.
Target sequence in this assay (P26951 19-378): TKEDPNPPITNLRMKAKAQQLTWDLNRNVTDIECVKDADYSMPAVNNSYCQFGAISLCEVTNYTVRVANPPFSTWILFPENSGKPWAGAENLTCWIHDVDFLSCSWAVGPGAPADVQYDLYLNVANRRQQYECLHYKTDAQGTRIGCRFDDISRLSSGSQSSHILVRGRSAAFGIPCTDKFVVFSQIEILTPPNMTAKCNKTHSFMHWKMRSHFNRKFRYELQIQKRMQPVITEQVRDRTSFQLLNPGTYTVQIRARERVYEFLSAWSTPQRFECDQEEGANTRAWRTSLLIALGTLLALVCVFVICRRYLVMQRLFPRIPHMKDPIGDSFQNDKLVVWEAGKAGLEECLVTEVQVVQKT

[2] = biological target: T1, human CD123 (IL3Rα) on cells; test: flow cytometry with Alexa 647 labelled antibody on Ad293 cells expressing human IL3Ra, geometric mean
Protocol: (§1) AD293 cells were maintained in DMEM (Dulbecco's Modified Eagle Medium) containing 10% heat-inactivated fetal bovine serum (FBS) and were cultured in a humidified atmosphere of 5% CO2 and at a temperature of 37° C. On the day of plating, cells were spun down at 1500 rpm for 3 minutes, counted, and resuspended to a final concentration of 0.3×10⁶ cells/ml. Two hundred μl of cells were plated to wells of 96 well microtiter plate. Plates were spun down at 1500 rpm for 3 minutes and flicked to remove media. One hundred μl of FACs buffer (PBS [Phosphate Buffer Saline]+2% FBS) was added to the wells. Plates were then spun again as above followed by addition of primary antibody in 100 μl of FACS buffer. […] Antibody concentration started at 12 μg/ml followed by six 1:3 dilutions (no antibody control was also run). Plates were incubated at 4° C. for 30 minutes. Following incubation plates were washed 3 times by spinning down at 1500 rpm for 3 minutes, flicked and 100 μl of FACS buffer were added. Following a final wash, 100 μl of FACS buffer containing live/dead DAPI (diamidino-2-phenylindole) stain was added to the plates. […] Flow data was analyzed in FlowJo software.

[3] = biological target: T2, mouse IL3Rα expressed on 293 cells (mouse, UniProt P26952 17-396); test: flow cytometry with Alexa 647 labelled antibody on Ad293 cells expressing mouse IL3Ra, geometric mean
T2 construct: whole, on cells; also called mouse CD123
T2 sequence (looked up): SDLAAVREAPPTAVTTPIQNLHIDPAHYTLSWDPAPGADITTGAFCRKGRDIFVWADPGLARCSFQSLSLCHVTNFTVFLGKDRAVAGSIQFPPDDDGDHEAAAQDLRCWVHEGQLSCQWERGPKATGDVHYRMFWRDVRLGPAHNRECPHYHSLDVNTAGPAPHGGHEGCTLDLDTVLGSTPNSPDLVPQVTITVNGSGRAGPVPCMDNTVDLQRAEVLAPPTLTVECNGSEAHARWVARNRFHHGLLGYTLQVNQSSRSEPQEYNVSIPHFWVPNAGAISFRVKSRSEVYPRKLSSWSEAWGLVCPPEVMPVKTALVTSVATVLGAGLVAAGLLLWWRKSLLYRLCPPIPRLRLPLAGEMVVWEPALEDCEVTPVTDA
Protocol: as §1

EC50 (read off the curve) [1]: ~0.04 µg/mL | EC50 (read off the curve) [2]: ~1 µg/mL
B1: HT12-GL antibody (antibody, human IgG1, kappa, V domains shown)
VH: EVQLLESGGGLVQPGGSLRLSCAASGFTFNIYAMTWVRQAPGKGLEWVSGISAGGDSTYYADSVKGRFTISRDNSKNTLYLQMNSLRAEDTAVYYCAKDRGYYYGMDVWGQGTTVTVSS
VL: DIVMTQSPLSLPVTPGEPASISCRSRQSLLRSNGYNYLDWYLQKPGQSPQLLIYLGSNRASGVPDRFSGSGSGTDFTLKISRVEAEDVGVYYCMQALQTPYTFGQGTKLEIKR
notes: elsewhere unlabeled with a secondary antibody; also called HT12-GL mAb; CD123 mAb
binding result [3]: no binding (tested: log 1.1 ug/ml (about 12 ug/ml))
